According to PMC2788937 (Science signaling, 2009):
No end group written: not given here.

B1: GST-EGLN3^(73-116) (domain or fragment, human, UniProt Q9H6Z9 73-116, looked up)
chain: LRGDQITWIGGNEEGCEAISFLLSLIDRLVLYCGSRLGKYYVKE
B2: FITC-labeled peptide derived from human EGLN3(89–104) (peptide)
peptide: EAISFLLSLIDRLVLY
modifications: also: FITC label, position not given here

How the values were obtained:
[1] = biological target: FLAG-tagged human β2-adrenergic receptor (human, UniProt P07550 1-413); assay: pull-down
GST-β2AR(330–413) = GST-β2AR(330–413) (human, UniProt P07550 330-413); assay: pull-down

| Binder | binding result [1] | binding result (GST-β2AR(330–413)) |
| --- | --- | --- |
| B1 | binds |  |
| B2 |  | binds |
